Measurements: patent US11059864B2, “Chimeric antigen receptor (CAR) modulation” (TRUSTEES OF BOSTON UNIVERSITY, priority 2019, dated 2021)

Key:
NS3a-genotype 1b = NS3a-genotype 1b (Hepatitis C virus genotype 1b, UniProt P26662, S1165A); conditions: read-out: affinity of basal complex with NS3a-genotype 1b; cited from earlier work
[1] = tested on: Her2-expressing NALM cells; test: Cell killing by Her2-specific NS3 CAR CD8+ T cells; type: cell-based, human
Description: FIG. 3A-3B is a series of graphs. FIG. 3A is a bar graph showing the killing efficiency of CD8+ T cells following expression of the NS3 CAR constructs or traditional CAR, in the presence or absence of GZV.
To further evaluate the downstream effector function of NS3 CAR T cells, their cell killing abilities were tested. Her2-specific NS3 CAR CD8+ T cells were mixed with Her2-expressing NALM cells at a 1:1 ratio and the extent of cell killing determined.
By varying the dose of NS3 inhibitor, the level of CD8+ T cell-mediated killing could be modulated.

NFAT = test: NS3 OFF CAR: NFAT-GFP levels in Jurkat T cells (components on separate vectors); type: cell-based; conditions: Jurkat T cells expressing two-component OFF-switch; presence of grazoprevir
Description: (§1) FIG. 8A-8D is a series of schematics and graphs showing testing of variations of the NS3 OFF CAR in Jurkat T cells. […] Combinations of components were tested as indicated. Each was introduced on a separate vector.
NS3 CAR OFF switches, comprising first and second components, were constructed as described herein. The first component comprises a peptide, which is specific for the NS3 of the second component, thus bringing the two components together.
(§2) Two different versions of the first component (c and d) and four different versions of the second component of the OFF-switch (i, ii, iii, and iv) were tested in Jurkat T cells. […] The OFF-switch CARs can also function when expressed in a single vector (see e.g., FIG. 9A-9C, FIG. 10A-10D).

Jurkat T cells = test: NS3 OFF CAR: CD69 levels in Jurkat cells (components on separate vectors); type: cell-based; conditions: Jurkat cells expressing OFF-switch components; presence of grazoprevir
Description: as §1, §2

NS3a/danoprevir complex = target: T1, NS3a/danoprevir complex (Hepatitis C virus genotype 1a, UniProt P27958); conditions: cited from earlier work
T1 construct: comprise the N-terminal 180 amino acids of the NS3 protein

asunaprevir-bound NS3a = target: T2, asunaprevir-bound NS3a (Hepatitis C virus genotype 1a, UniProt P27958); conditions: cited from earlier work
T2 construct: comprise the N-terminal 180 amino acids of the NS3 protein

grazoprevir/NS3a complex = conditions: cited from earlier work
apo NS3a = target: T3, apo NS3a (Hepatitis C virus genotype 1a, UniProt P27958); conditions: cited from earlier work
T3 construct: comprise the N-terminal 180 amino acids of the NS3 protein

Her2+ target NALM cells [2] = test: CD69 expression in CD4+ and CD8+ primary T cells expressing NS3 CARs mixed with target cells; type: cell-based; conditions: human CD4+ and CD8+ primary T cells; presence or absence of grazoprevir and/or Her2+ target NALM cells
Text: (§3) FIG. 2A-2B is a series of bar graphs. FIG. 2A is a series of bar graphs showing CD69 expression in CD4+ and CD8+ T cells following expression of the NS3 CAR constructs or traditional CAR, in the presence or absence of GZV (Grazoprevir) and/or target cell. FIG. 2B is a series of bar graphs showing CD4+ and CD8+ T cell IL-2 and IFN-gamma cytokine release following expression the NS3 CAR constructs or traditional CAR, in the presence or absence of GZV and/or target cell.
(§4) These CARs were introduced into human CD4+ and CD8+ primary T cells and tested for functionality by mixing with Her2+ target NALM cells. As a readout for NS3 CAR control over T cell activity, levels of CD69 (an early T cell activation marker) and cytokine release (indicative of downstream effector function) were measured. It is expected that in the absence of grazoprevir (an NS3 inhibitor), the CAR is dismantled, rendering it non-functional. Once grazoprevir is added, the full CAR is assembled, thus allowing the T cell to activate when Her2-expressing target cells are present (see e.g., FIG. 1B).

Her2+ target NALM cells [3] = test: IL-2 and IFN-gamma cytokine release by CD4+ and CD8+ primary T cells expressing NS3 CARs; type: cell-based; conditions: human CD4+ and CD8+ primary T cells; presence or absence of grazoprevir and/or Her2+ target NALM cells
Text: as §3, §4

Sequence of grazoprevir/NS3a complex (P27958 1027-1208, one chain of several): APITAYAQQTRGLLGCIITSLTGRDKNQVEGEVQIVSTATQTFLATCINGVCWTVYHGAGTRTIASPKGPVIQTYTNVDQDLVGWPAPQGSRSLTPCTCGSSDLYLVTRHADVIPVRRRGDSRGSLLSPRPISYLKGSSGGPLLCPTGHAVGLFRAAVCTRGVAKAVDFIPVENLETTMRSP
T2 sequence (P27958 1027-1208): as the sequence (P27958 1027-1208, one chain of several) above
T1 sequence (P27958 1027-1208, one chain of several): as above
T3 sequence (P27958 1027-1208): as the sequence (P27958 1027-1208, one chain of several) above
Sequence of NS3a-genotype 1b (P26662 1029-1207 D1056E/L1062V/P1112Q/M1120L/V1140I/I1158V/S1165A/V1176A/I1196V): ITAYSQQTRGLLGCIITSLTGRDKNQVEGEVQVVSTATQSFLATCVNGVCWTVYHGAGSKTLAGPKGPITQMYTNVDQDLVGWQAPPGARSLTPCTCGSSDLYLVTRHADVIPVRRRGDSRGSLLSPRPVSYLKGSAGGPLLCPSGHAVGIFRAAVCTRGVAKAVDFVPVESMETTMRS

apo NS3a reader peptide GELDELVYLLDGPGYDPIHSD, SEQ ID NO: 204 [ANR]
Kd (NS3a-genotype 1b): 10 nM

C=C[C@@H]1C[C@]1(NC(=O)[C@@H]1C[C@@H]2CN1C(=O)[C@H](C(C)(C)C)NC(=O)O[C@@H]1C[C@H]1CCCCCc1nc3ccc(OC)cc3nc1O2)C(=O)NS(=O)(=O)C1CC1 [grazoprevir]
cell killing ability versus level of NS3 inhibitor ([1]; CD8+ T cells expressing the V2 NS3 CAR, 1:1 ratio, NS3 inhibitor varied between 0 uM-5 uM): can be used to regulate the level of killing efficiency
killing efficiency versus concentration of Grazoprevir ([1]; traditional CAR T cells or wild-type cells): does not impact traditional CAR T cells or wild-type cells
NFAT-GFP levels (NFAT): diminished to baseline
CD69 levels (Jurkat T cells): diminished to baseline

B1: D5: reader domain, SEQ ID NO: 206, 229 aa (protein)
chain: SSDEEEARELIERAKEAAERAQEAAERTGDPRVRELARELKRLAQEAAEEVKRDPSSSDVNEALKLIVEAIEAAVDALEAAERTGDPEVRELARELVRLAVEAAEEVQRNPSSSDVNEALLTIVIAIEAAVNALEAAERTGDPEVRELARELVRLAVEAAEEVQRNPSSREVNIALWKIVLAIQEAVESLREAEESGDPEKREKARERVREAVERAEEVQRDPSGWLNH
binding of NS3 in the presence of danoprevir (danoprevir-bound NS3a) (NS3a/danoprevir complex): moderate binding
binding of NS3 in the presence of asunaprevir (asunaprevir-bound NS3a) (asunaprevir-bound NS3a): some binding
binding of NS3 in the presence of grazoprevir (grazoprevir/NS3a complex): moderate binding

B2: GNCR1: grazoprevir/NS3 complex reader domain, SEQ ID NO: 105, 233 aa (protein)
chain: DIEKLCKKAEEEAKEAQEKADELRQRHPDSQAAEDAEDLANLAVAAVLTACLLAQEHPNADIAKLCIKAASEAAEAASKAAELAQRHPDSQAARDAIKLASQAARAVILAIMLAAENPNADIAKLCIKAASEAAEAASKAAELAQRHPDSQAARDAIKLASQAAEAVERAIWLAAENPNADIAKKCIKAASEAAEEASKAAEEAQRHPDSQKARDEIKEASQKAEEVKERCKS
binding of NS3 in the presence of danoprevir (danoprevir-bound NS3a) (NS3a/danoprevir complex): little to no affinity
binding of NS3 in the presence of asunaprevir (asunaprevir-bound NS3a) (asunaprevir-bound NS3a): little to no affinity
binding to apo NS3a (apo NS3a): little to no affinity
Kd (grazoprevir/NS3a complex; read-out: affinity for the grazoprevir/NS3a complex): 140 nM

B3: G5: reader domain, SEQ ID NO: 208 (named G3 in the sequence listing), 233 aa (protein)
chain: DIEKLCKKAEEEAKEAQEKADELRQRHPDSQAAEDAEDLANEAEAAVLAACSLAQEHPNADIAKLCIKAASEAAEAASKAAELAQRHPDSQAARDAIKLASQAARAVILAIMLAAENPNADIAKLCIKAASEAAEAASKAAELAQRHPDSQAARDAIKLASQAAEAVERAIWLAAENPNADIAKKCIKAASEAAEEASKAAEEAQRHPDSQKARDEIKEASQKAEEVKERCKS
binding of NS3 in the presence of danoprevir (danoprevir-bound NS3a) (NS3a/danoprevir complex): no binding
binding of NS3 in the presence of asunaprevir (asunaprevir-bound NS3a) (asunaprevir-bound NS3a): some binding
binding of NS3 in the presence of grazoprevir (grazoprevir/NS3a complex): moderate binding

B4: Traditional CAR: traditional third-generation Her2 CAR without NS3; SEQ ID NO: 4, 37 (protein)
chain: ALPVTALLLPLALLLHAARPKYLLPTAAAGLLLLAAQPAMAQVQLVQSGAEVKKPGESLKISCKGSGYSFTSYWIAWVRQMPGKGLEYMGLIYPGDSDTKYSPSFQGQVTISVDKSVSTAYLQWSSLKPSDSAVYFCARHDVGYCTDRTCAKWPEYFQHWGQGTLVTVSSGGGGSGGGGSGGGGSQSVLTQPPSVSAAPGQKVTISCSGSSSNIGNNYVSWYQQLPGTAPKLLIYDHTNRPAGVPDRFSGSKSGTSASLAISGFRSEDEADYYCASWDYTLSGWVFGGGTKLTVLGGKPIPNPLLGLDSTNGAATTTPAPRPPTPAPTIALQPLSLRPEACRPAAGGAVHTRGLDFACDFWVLVVVGGVLACYSLLVTVAFIIFWVRSKRSRLLHSDYMNMTPRRPGPTRKHYQPYAPPRDFAAYRSKRGRKKLLYIFKQPFMRPVQTTQEEDGCSCRFPEEEEGGCELRVKFSRSADAPAYKQGQNQLYNELNLGRREEYDVLDKRRGRDPEMGGKPRRKNPQEGLYNELQKDKMAEAYSEIGMKGERRRGKGHDGLYQGLSTATKDTYDALHMQALPPR
CD69 expression (Her2+ target NALM cells [2]): no response to the NS3 inhibitor
IL-2 and IFN-gamma cytokine release (Her2+ target NALM cells [3]): no response to the NS3 inhibitor

B5: DNCR2: danoprevir/NS3 complex reader domain, SEQ ID NO: 101, 229 aa (protein)
chain: SSDEEEARELIERAKEAAERAQEAAERTGDPRVRELARELKRLAQEAAEEVKRDPSSSDVNEALKLIVEAIEAAVDALEAAERTGDPEVRELARELVRLAVEAAEEVQRNPSSSDVNEALHSIVYAIEAAIFALEAAERTGDPEVRELARELVRLAVEAAEEVQRNPSSRNVEHALMRIVLAIYLAEENLREAEESGDPEKREKARERVREAVERAEEVQRDPSGWLNH
selectivity over NS3a bound to the drugs grazoprevir or asunaprevir (NS3a/danoprevir complex): > 20,000 fold
Kd (NS3a/danoprevir complex; read-out: affinity for the NS3a/danoprevir complex): 0.036 nM
binding to apo NS3a (apo NS3a): no detectable binding

B6: DNCR1: danoprevir/NS3 complex reader domain, SEQ ID NO: 207, 229 aa (protein)
chain: SSDEEEARELIERAKEAAERAQEAAERTGDPRVRELARELKRLAQEAAEEVKRDPSSSDVNEALKLIVEAIEAAVDALEAAERTGDPEVRELARELVRLAVEAAEEVQRNPSSSDVNEALLSIVIAIEAAVHALEAAERTGDPEVRELARELVRLAVEAAEEVQRNPSSREVEHALMKIVLAIYEAEESLREAEESGDPEKREKARERVREAVERAEEVQRDPSGWLNH
binding of NS3 in the presence of danoprevir (danoprevir-bound NS3a) (NS3a/danoprevir complex): high binding
binding of NS3 in the presence of asunaprevir (asunaprevir-bound NS3a) (asunaprevir-bound NS3a): minimal binding
binding of NS3 in the presence of grazoprevir (grazoprevir/NS3a complex): minimal binding
